Patent US20250388664A1 (BIOARCTIC, published 2025)
Where two headings read alike, the source gives them in different places.

Columns and labels:
[1] = biological target: T1, hTfR1 (recombinant, construct not specified) (human, UniProt P02786 89-760, limits assumed); experiment: BLI: hTfR1 captured on biotinylated human holo-transferrin on streptavidin sensors, 15 nM Fab in solution, 120 s association, 300 s dissociation
T1 construct: also called biotinylated hTfR1
Description: A more detailed binding analysis by BLI was performed on purified, selected antibodies. […] For example, the BLI instrument Octet Red384 was used to measure binding between immobilized TfR1 and the tested Fab fragments in solution. […] Antibody binding to TfR1 was measured during an association phase of 120 s and a dissociation phase of 300 s.

AβpE3-40 monomer [2] = biological target: T2, AβpE3-40 monomer (UniProt P05067 674-711, pyroglutamate at position 3 (N-terminal residue)); experiment: cell-based or functional assay
AβpE3-40 monomer [3] = biological target: T2, AβpE3-40 monomer; experiment: SPR, antibody immobilised, monomer injected, 1:1 fit
Description: Single cycle kinetics with the binding molecules immobilized on a CM5 chip was used to measure binding to the AβpE3-40 monomer. For the measurements, 5 μg/ml of analyte binding molecule was immobilized on the chip. […] Regeneration of the surface between cycles was done by injecting 30 μl 3 M MgCl₂ (Cytiva, cat. No. 29234600). The binding data was fitted to a 1:1 interaction model.

AβpE3-40 monomer [4] = biological target: T2, AβpE3-40 monomer; experiment: inhibition ELISA, antigen titrated in solution, AβpE3-40 coat
Description: (§1) The tested molecules were incubated at a fixed concentration (0.1 μg/ml) with titrating concentrations of the different AβpE3 antigens. After incubation for 45 min at 900 rpm to reach equilibrium, the samples were added to a blocked and washed ELISA plate with an AβpE3-40 coat (0.5 μM). The samples were incubated on the plate for 25 min without shaking followed by washing, incubation with detection antibody, another washing step and finally incubation with alkaline phosphatase substrate.

AβpE3-42 protofibrils = biological target: T3, AβpE3-42 protofibrils (UniProt P05067 674-713, pyroglutamate at position 3 (N-terminal residue)); experiment: as above
T3 construct: range 3-42 (Aβ numbering); Soluble aggregates made from AβpE3-42 peptide, purified in the void peak of SEC; also called AβpE3-42 PF
Description: as §1

hTfR1 on cell surfaces = biological target: T4, hTfR1 on cell surfaces (human, UniProt P02786 1-760); experiment: flow cytometry on Fc-blocked K562 cells, 1 h at 4°C, detection with PE anti-human IgG Fc
T4 construct: Endogenous receptor on human cell lines; also called endogenous hTfR1 on hCMEC/D3, THP-1 and K562 cells; CD71

[5] = biological target: T5, truncated hTfR1 of SEQ ID NO:122 (human, UniProt P02786 122-760); experiment: SPR, TfR1 amine-coupled, Fab injected, 1:1 fit
T5 construct: also called human TfR1; Human TfR1
Description: (§2) The interaction was measured using the single cycle kinetics method with a contact time of 120 s at a flow rate of […] followed by a dissociation time of 600 s. Regeneration of the surface between cycles was done by injecting 3M MgCl₂. The binding data were fitted to a 1:1 interaction model. The Fabs were diluted in HBS-EP+ (Cytiva, #BR100669). Experiments were performed at 25° C.

[6] = biological target: T6, truncated cTfR1 of SEQ ID NO:123 (cynomolgus monkey, UniProt Q5RDH6 122-760 (Pongo abelii entry)); experiment: SPR, TfR1 amine-coupled, Fab injected, 1:1 fit
T6 construct: also called cynomolgus TfR1
T6 chain: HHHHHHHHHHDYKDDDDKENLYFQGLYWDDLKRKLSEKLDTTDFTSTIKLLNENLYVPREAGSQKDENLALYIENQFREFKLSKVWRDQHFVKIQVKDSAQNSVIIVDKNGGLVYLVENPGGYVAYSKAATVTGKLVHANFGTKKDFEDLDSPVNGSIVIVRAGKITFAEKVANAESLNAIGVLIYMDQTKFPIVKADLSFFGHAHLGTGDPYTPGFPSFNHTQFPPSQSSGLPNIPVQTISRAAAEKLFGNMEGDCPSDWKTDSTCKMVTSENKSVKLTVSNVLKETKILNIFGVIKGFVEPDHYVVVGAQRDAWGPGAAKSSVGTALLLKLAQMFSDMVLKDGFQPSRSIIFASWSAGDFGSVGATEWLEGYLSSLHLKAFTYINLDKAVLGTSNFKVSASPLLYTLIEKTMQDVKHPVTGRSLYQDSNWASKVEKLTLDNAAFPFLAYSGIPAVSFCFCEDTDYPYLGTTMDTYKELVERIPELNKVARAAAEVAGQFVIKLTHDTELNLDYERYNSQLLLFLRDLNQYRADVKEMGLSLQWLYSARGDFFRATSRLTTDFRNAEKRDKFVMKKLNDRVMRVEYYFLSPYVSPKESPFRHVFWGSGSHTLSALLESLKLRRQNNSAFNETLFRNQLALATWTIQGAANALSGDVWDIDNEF
Description: as §2

[7] = biological target: T1, hTfR1 (recombinant, construct not …); experiment: indirect ELISA on an hTfR1 coat, detection with anti-mouse IgG F(ab')2, normalised A450 against log antibody concentration in pM
[8] = biological target: T5, truncated hTfR1 of SEQ ID NO:122; experiment: SPR, TfR1 amine-coupled, Fab injected, 1:1 fit; remark: listed apart in the source
Description: (§3) Binding of the purified Fabs to human and cynomolgus TfR1 was evaluated using either SPR (FIG. 44) or indirect ELISA (FIG. 45). For SPR, a Biacore 8K instrument (Cytiva) was used. […] The Fabs were injected over the chip using a 2-fold dilution series in four steps starting at 100 nM. The interaction was measured using the single cycle kinetics method with a contact time of 120 s at a flow rate of 30 μl/min followed by a dissociation time of 1000 s. Regeneration of the surface between cycles was done by injecting 3M MgCl₂. The binding data was fitted to a 1:1 interaction model. The Fabs were diluted in HBS-EP+ (Cytiva, #BR100669). Experiments were performed at 25° C.

[9] = biological target: T6, truncated cTfR1 of SEQ ID NO:123; experiment: SPR (Biacore 8K), single cycle kinetics: cTfR1 amine-coupled on a CM5 chip, Fab injected in a 2-fold series of four steps from 100 nM
Description: as §3

T2 sequence (P05067 674-711): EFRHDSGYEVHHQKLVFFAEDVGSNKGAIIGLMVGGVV
T3 sequence (P05067 674-713): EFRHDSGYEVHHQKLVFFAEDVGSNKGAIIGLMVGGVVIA

B1: 37D10-Fab (Fab, V domains shown)
VH: QVQLQQSGAELVRPGTSVKISCKASGYAFTNYWLGWVKQRPGHGLEWIGDIFPGSDNTYYNEKFKGKATLTADKSSSTAYMQLSSLASEDSAVYFCARSGNFYAMDYWGQGTSVTVSS
VL: ENVLTQSPAIMSASPGEKVTMTCSASSSVNYMNWYQQKSSTFPKLWIYDTSKLASGVPGRFSGSGSGKFYSLTISSMEAEDVATYYCFQGSGYPFTFGSGTKLEIK
notes: Fab of murine 37D10
**Q.** Does B1 bind [1]?
**A.** Result: binds

B2: BA003 (antibody, human IgG1, kappa)
light: EIVLTQSPLSLSVTLGQSASISCRSSQSLLDSNGKTYLHWFILRPGQSPRRLIYLVSILDSGVPDRFSGSGSGTDFTLKISRVEAEDVGVYYCVQGTHFPFTFGSGTKLEIKRTVAAPSVFIFPPSDEQLKSGTASVVCLLNNFYPREAKVQWKVDNALQSGNSQESVTEQDSKDSTYSLSSTLTLSKADYEKHKVYACEVTHQGLSSPVTKSFNRGEC
heavy: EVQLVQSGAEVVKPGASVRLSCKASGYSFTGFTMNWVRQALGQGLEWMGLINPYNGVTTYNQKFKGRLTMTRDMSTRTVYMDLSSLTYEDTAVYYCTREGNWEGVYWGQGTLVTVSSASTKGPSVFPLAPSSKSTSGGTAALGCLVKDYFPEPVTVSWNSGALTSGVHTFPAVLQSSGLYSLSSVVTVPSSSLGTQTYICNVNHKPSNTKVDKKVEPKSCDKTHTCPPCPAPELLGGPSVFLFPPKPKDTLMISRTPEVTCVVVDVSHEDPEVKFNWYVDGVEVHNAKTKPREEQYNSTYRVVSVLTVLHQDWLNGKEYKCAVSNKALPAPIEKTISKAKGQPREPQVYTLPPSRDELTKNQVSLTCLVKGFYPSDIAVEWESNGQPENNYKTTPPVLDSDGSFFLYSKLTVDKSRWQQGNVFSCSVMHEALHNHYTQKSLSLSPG
notes: also called comparator antibody BA003; control antibody BA003
**Q.** For B2, which “Uptake of AβpE3-40 monomers in THP-1 cells, EC50” value (AβpE3-40 monomer [2]) is on record?
**A.** Its value is 2.2 nM.

**Q.** What about the Kd (AβpE3-40 monomer [3]) of the same binder?
**A.** The Kd was 2.33 nM.

**Q.** And the koff (AβpE3-40 monomer [3])?
**A.** Its koff is 0.000127 s⁻¹.

**Q.** What about the kon (AβpE3-40 monomer [3]) of the same binder?
**A.** The kon was 54600 M⁻¹ s⁻¹.

**Q.** And the IC50 (AβpE3-40 monomer [4])?
**A.** The IC50 was 1.1 nM.

**Q.** What about the IC50 (AβpE3-42 protofibrils) of the same binder?
**A.** Its IC50 is 2.2 nM.

**Q.** Does B2 bind (hTfR1 on cell surfaces)?
**A.** Result: no binding (tested: 10000 nM)

B3: 26D3-Fab (Fab, V domains shown)
VH: EVQLQQFGVELVKPGASVKISCKASGYIFTDYNMDWVKQSHGKSLEWIGDINPDYDTTSYNEKFKGKATLTVDKSSSTAYMELRSLTSEDTAVYYCARGGYSGSSYYHPMDYWGQGTSVTVSS
VL: DIVMSQSPSSLAVSVGEKITMSCKSSQSLLYSTNQKNYLAWYQQKPGQSPELLIYWASTRESGVPDRFTGSGSGTDFTLTISNVRAEDLAVYYCQQYFIYPRTFGGGTKLEIK
notes: Fab of murine 26D3; also called murine 26D3 Fab
**Q.** Which results are given for B3?
**A.** Kd [5]: 3.6 nM; Kd [6]: 10 nM; EC50 (read off the curve) [7]: ~0.06 nM

B4: h26D3 variant LC5 Fab (Fab, V domains shown)
VH: EVQLVQSGAEVKKPGSSVKVSCKASGYIFTDYNMDWVRQAPGQGLEWIGDINPDYDTTSYNEKFKGRATLTVDKSTSTAYMELSSLRSEDTAVYYCARGGYSGSSYYHPMDYWGQGTLVTVSS
VL: DIQMTQSPSSVSASVGDRVTITCKSSQSLLYSTNQKNYLAWYQQKPGKAPKLLIYWASTRESGVPSRFSGSGSGTDFTLTISSLQPEDFATYYCQQAFIYPRTFGQGTKVEIK
notes: Single-mutant His-tagged Fab; also called Y97A
**Q.** What does the source list for B4?
**A.** Kd [8]: 240 nM; binding result [9]: binds
